Data from publication PMC13193136.

Tested on: SOX2 DNA-binding domain (human)
Experiment: PIC-NIC microarray
Conditions: Protein-specific binding buffers (Supplementary Methods, not in the material), PBM incubation 1 h at room temperature, hybridization simulated at 150 mM Na+ …

Q: Which binding signal (fold (reference)) does the source give for SOX2 site intact here?
A: 1

Q: For SOX2 site nick 3, 5'P retained, which binding signal (fold signal vs intact duplex) (nick at position 3, 5' phosphate) is on record?
A: 3
